Source: patent US11629364B2, “Methods for synthesizing anticoagulant polysaccharides” (OPTIMVIA, LLC, priority 2019, dated 2023)

Test: NST activity: N-sulfated products detected by SAX-HPLC after lyase digestion
Type: biochemical
Conditions: PNS or NCS as sulfo donor, N-deacetylated heparosan acceptor, 37° C. overnight
Procedure: A study was conducted in accordance with embodiments of the present disclosure to confirm NST activity of enzymes comprising the amino acid sequence of SEQ ID NO: 2, SEQ ID NO: 4, SEQ ID NO: 6, SEQ ID NO: 8, SEQ ID NO: 10, or SEQ ID NO: 12 by detecting the presence of N-sulfated polysaccharide products formed as a result of their sulfotransfer reaction, using mass spectrometry (MS). Each engineered enzyme was purified according to the procedure of Example 1. Sulfotransferase activity was monitored in 100 μL reactions containing 50 μM of enzyme. To each purified protein solution, 20 mg of an aryl sulfate compound (either PNS or NCS) was dissolved in 2 mL of reaction buffer (50 mM IVIES pH 7.0, 2 mM CaCl2)), added to the protein solution, and incubated at 37° C. for 10 min. 2.5 mL of 2 mg/mL solution of N-deacetylated heparosan was added to protein/donor solution and incubated overnight at 37° C. The N-deacetylated heparosan was synthesized according to the protocol described in Balagurunathan, K. et al (eds.) (2015), Glycosaminoglycans: Chemistry and Biology, Methods in Molecular Biology, vol. 1229, DOI 10.1007/978-1-4939-1714-3_2, ©Springer Science+Business Media, New York, pp. 11-19 (section 3.1). To purify the N-sulfated product, the incubated reaction mixture was centrifuged the following day at 5,000×g for 10 min. The filter was washed once with 2 mL water, and centrifuged again. The filtrate was added to a 1K MWCO Dialysis membrane, dialyzed for 2 days in Milli-Q water, with water changes at 1 h, 2 h, 8 h, 16 h, 32 h, and then lyophilized.
The lyophilized N-sulfated products from each reaction were subsequently digested with a mixture of three carbon-oxygen lyases comprising the amino acid sequences of SEQ ID NO: 30, SEQ ID NO: 31, and SEQ ID NO: 32, which catalyze the β-eliminative cleavage of heparosan-based polysaccharides. Such lyases are available from New England Biolabs, among other chemical and biological commercial entities. 1 μL of each lyase was incubated with 50 μg of the lyophilized sulfated polysaccharide product and the provided digestion buffer, and incubated over 24 hours according to the packaged instructions provided by New England Biolabs with each lyase. After digestion, the lyase enzymes were inactivated by heating to 100° C. for 5 minutes. Samples were centrifuged at 14,000 rpm for 30 minutes before introduction to a strong anion exchange, high performance liquid chromatography (SAX) analysis. SAX analysis was performed on a Dionex Ultimate 3000 LC system interface. Separation was carried out on a 4.6×250 mm Waters Spherisorb analytical column with 5.0 μm particle size at 45° C. Mobile phase solution A was 2.5 mM sodium phosphate, pH 3.5, while mobile phase solution B was 2.5 mM sodium phosphate, pH 3.5, and 1.2 M Sodium perchlorate. After each sample was loaded onto the column, mobile phase solutions were applied to the column at a ratio of 98% mobile phase solution A and 2% mobile phase solution B for five minutes at a flow rate of 1.4 mL/min. After five minutes, a linear gradient of increasing mobile phase solution B was applied until the ratio of mobile phase solution A to mobile phase solution B was 50:50.

Molecule | NST sulfotransferase activity with aryl sulfate compounds
SEQ ID NO: 4: engineered aryl sulfate-dependent NST enzyme, mutant of N-sulfotransferase domain of human NDST (protein, Amino acid sequence encoding for engineered arylsulfate-dependent N-sulfotransferase variant 2, engineered aryl sulfate-dependent NST enzyme, mutant of N-sulfotransferase domain of human NDST) MSEEKDPLWQDPCEDKRHKDIWSKEKTCDRFPKLLIIGPSKTGAFLLTHFLGMHPDLSSNYPSSETGHSIQFFNGHNYHKGIDWYMEFFPIPSNTTSDFYFETSSNYFDSEVAPRRAAALLPKAKVLTILINPADRAYSWYQHQRAHDDPVALKYTFHEVITAGSDASSKLRALQNRCLVPGWYATHIERWLSAYHANQILVLDGKLLRTEPAKVMDMVQKFLGVTNTIDYHKTLAFDPKKGFWCQLLEGGKTKCHGKRWGRKYPEMDLDSRAFLKDYYRDHNIELSKLLYKMGQTLPTWLREDLQNTR | activity with NCS only
SEQ ID NO: 8: engineered aryl sulfate-dependent NST enzyme, mutant of N-sulfotransferase domain of human NDST (protein, Amino acid sequence encoding for engineered arylsulfate-dependent N-sulfotransferase variant 4, engineered aryl sulfate-dependent NST enzyme, mutant of N-sulfotransferase domain of human NDST) MSEEKDPLWQDPCEDKRHKDIWSKEKTCDRFPKLLIIGPHGTGGHALYLFLGMHPDLSSNYPSSETFLSIQFFNGHNYHKGIDWYMEFFPIPSNTTSDFYFEHSGNYFDSEVAPRRAAALLPKAKVLTILINPADRAYRAYVWQRAHDDPVALKYTFHEVITAGSDASSKLRALQNRCLVPGWYATHIERWLSAYHANQILVLDGKLLRTEPAKVMDMVQKFLGVTNTIDYHKTLAFDPKKGFWCQLLEGGKTKCLGKSLGSKYPEMDLDSRAFLKDYYRDHNIELSKLLYKMGQTLPTWLREDLQNTR | activity with both aryl sulfate compounds
SEQ ID NO: 10: engineered aryl sulfate-dependent NST enzyme, mutant of N-sulfotransferase domain of human NDST (protein, Amino acid sequence encoding for engineered arylsulfate-dependent N-sulfotransferase variant 5, engineered aryl sulfate-dependent NST enzyme, mutant of N-sulfotransferase domain of human NDST) MSEEKDPLWQDPCEDKRHKDIWSKEKTCDRFPKLLIIGPHKTGVHALYLFLGMHPDLSSNYPSSETGNHIGFFGGHNYHKGIDWYMEFFPIPSNTTSDFYFEKSAWYFDSEVAPRRAAALLPKAKVLTILINPADRAYSWYQHQRAHDDPVALKYTFHEVITAGSDASSKLRALQNRCLVPGWYATHIERWLSAYHANQILVLDGKLLRTEPAKVMDMVQKFLGVTNTIDYHKTLAFDPKKGFWCQLLEGGKTKCLGKSVGRKYPEMDLDSRAFLKDYYRDHNIELSKLLYKMGQTLPTWLREDLQNTR | activity with NCS only
SEQ ID NO: 6: engineered aryl sulfate-dependent NST enzyme, mutant of N-sulfotransferase domain of human NDST (protein, Amino acid sequence encoding for engineered arylsulfate-dependent N-sulfotransferase variant 3, engineered aryl sulfate-dependent NST enzyme, mutant of N-sulfotransferase domain of human NDST) MSEEKDPLWQDPCEDKRHKDIWSKEKTCDRFPKLLIIGPHGTGGHALYLFLGMHPDLSSNYPSSETGEEIQFFNGHNYHKGIDWYMEFFPIPSNTTSDFYFEKSANYFDSEVAPRRAAALLPKAKVLTILINPADRAYSWYQAQRAHDDPVALKYTFHEVITAGSDASSKLRALQNRCLVPGWYATHIERWLSAYHANQILVLDGKLLRTEPAKVMDMVQKFLGVTNTIDYHKTLAFDPKKGFWCQLLEGGKTKCGGKHLGRKYPEMDLDSRAFLKDYYRDHNIELSKLLYKMGQTLPTWLREDLQNTR | activity with both aryl sulfate compounds
SEQ ID NO: 2: engineered aryl sulfate-dependent NST enzyme, mutant of N-sulfotransferase domain of human NDST (protein, Amino acid sequence encoding for engineered arylsulfate-dependent N-sulfotransferase variant 1, engineered aryl sulfate-dependent NST enzyme, mutant of N-sulfotransferase domain of human NDST) MSEEKDPLWQDPCEDKRHKDIWSKEKTCDRFPKLLIIGPQKTGAWALYHFLGMHPDLSSNYPSSETHGSIQFFNGHNYHKGIDWYMEFFPIPSNTTSDFYFEKSANYFDSEVAPRRAAALLPKAKVLTILINPADRAYSWYQHQRAHDDPVALKYTFHEVITAGSDASSKLRALQNRCLVPGWYATHIERWLSAYHANQILVLDGKLLRTEPAKVMDMVQKFLGVTNTIDYHKTLAFDPKKGFWCQLLEGGKTKCLGKSHGRKYPEMDLDSRAFLKDYYRDHNIELSKLLYKMGQTLPTWLREDLQNTR | activity with NCS only
SEQ ID NO: 12: engineered aryl sulfate-dependent NST enzyme, mutant of N-sulfotransferase domain of human NDST (protein, Amino acid sequence encoding for engineered arylsulfate-dependent N-sulfotransferase variant 6, engineered aryl sulfate-dependent NST enzyme, mutant of N-sulfotransferase domain of human NDST) MSEEKDPLWQDPCEDKRHKDIWSKEKTCDRFPKLLIIGPAKTGAWLLHHFLGMHPDLSSNYPSSETHSSIQFFNGHNYHKGIDWYMEFFPIPSNTTSDFYFETSANYFDSEVAPRRAAALLPKAKVLTILINPADRAYSWYQHQRAHDDPVALKYTFHEVITAGSDASSKLRALQNRCLVPGWYATHIERWLSAYHANQILVLDGKLLRTEPAKVMDMVQKFLGVTNTIDYHKTLAFDPKKGFWCQLLEGGKTKCAHKGLGRKYPEMDLDSRAFLKDYYRDHNIELSKLLYKMGQTLPTWLREDLQNTR | activity with PNS only

Same assay, conditions: procedures of Example 2; expected

Molecule | NST activity: N-sulfated products by SAX
SEQ ID NO: 35: mutant of N-sulfotransferase domain of pig NDST carrying the SEQ ID NO: 2 mutations (protein, Amino acid sequence encoding for engineered arylsulfate-dependent N-sulfotransferase variant 9) MSEEKDPLWQDPCEDKRHKDIWSKEKTCDRFPKLLIIGPQKTGAWALYHFLGLHPDLSSNYPSSETHGSIQFFNGHNYHKGIDWYMDFFPIPSNTTSDFYFEKSANYFDSDVAPRRAAALLPKAKVLTILINPADRAYSWYQHQRAHDDPAALRYTFHEVITAGPDASLKLRALQNRCLVPGWYATHLERWLGAFHANQILVLDGKLLRTEPARVMDTVQKFLGVTNTIDYHKTLAFDPKKGFWCQLLEGGKTKCLGRSHGRKYPDMDPDSRAFLRDYYRDHNIELSKLLYKMGQTLPTWLREELQNTR | confirm the presence of N-sulfated polysaccharide products
SEQ ID NO: 36: mutant of N-sulfotransferase domain of pig NDST carrying the SEQ ID NO: 4 mutations (protein, Amino acid sequence encoding for engineered arylsulfate-dependent N-sulfotransferase variant 10) MSEEKDPLWQDPCEDKRHKDIWSKEKTCDRFPKLLIIGPSKTGAFLLTHFLGLHPDLSSNYPSSETGHSIQFFNGHNYHKGIDWYMDFFPIPSNTTSDFYFETSSNYFDSDVAPRRAAALLPKAKVLTILINPADRAYSWYQHQRAHDDPAALRYTFHEVITAGPDASLKLRALQNRCLVPGWYATHLERWLGAFHANQILVLDGKLLRTEPARVMDTVQKFLGVTNTIDYHKTLAFDPKKGFWCQLLEGGKTKCHGRRWGRKYPDMDPDSRAFLRDYYRDHNIELSKLLYKMGQTLPTWLREELQNTR | confirm the presence of N-sulfated polysaccharide products
